Experimental data taken from PMC2952866 (Nucleic Acids Research, 2010).

T1: Mcm4 (Saccharomyces cerevisiae, UniProt P30665 1-933)
T1 sequence: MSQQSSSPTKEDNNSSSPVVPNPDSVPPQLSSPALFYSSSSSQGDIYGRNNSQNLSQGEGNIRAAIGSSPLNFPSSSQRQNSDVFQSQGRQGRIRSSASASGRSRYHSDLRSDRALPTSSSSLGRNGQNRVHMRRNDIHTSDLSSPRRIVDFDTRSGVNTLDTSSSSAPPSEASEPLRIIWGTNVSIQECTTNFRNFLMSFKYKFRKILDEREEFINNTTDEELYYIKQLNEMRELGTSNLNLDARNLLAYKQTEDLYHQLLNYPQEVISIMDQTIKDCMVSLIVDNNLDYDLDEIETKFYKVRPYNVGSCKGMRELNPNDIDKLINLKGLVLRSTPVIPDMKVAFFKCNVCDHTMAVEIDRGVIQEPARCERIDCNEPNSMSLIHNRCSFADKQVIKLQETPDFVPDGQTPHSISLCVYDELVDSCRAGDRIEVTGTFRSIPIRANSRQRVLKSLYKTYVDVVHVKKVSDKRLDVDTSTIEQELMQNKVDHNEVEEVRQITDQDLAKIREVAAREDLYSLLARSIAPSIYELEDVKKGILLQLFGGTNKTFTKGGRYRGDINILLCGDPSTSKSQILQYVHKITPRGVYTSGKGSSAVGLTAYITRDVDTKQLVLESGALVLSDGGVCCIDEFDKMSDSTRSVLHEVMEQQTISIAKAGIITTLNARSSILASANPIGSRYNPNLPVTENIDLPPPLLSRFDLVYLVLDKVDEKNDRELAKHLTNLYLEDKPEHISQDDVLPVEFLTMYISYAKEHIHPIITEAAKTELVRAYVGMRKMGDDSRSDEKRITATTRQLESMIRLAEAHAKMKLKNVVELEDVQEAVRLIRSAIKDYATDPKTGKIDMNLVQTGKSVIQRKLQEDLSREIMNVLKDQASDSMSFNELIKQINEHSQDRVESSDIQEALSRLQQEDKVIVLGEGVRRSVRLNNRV

T2: Mcm7 (Saccharomyces cerevisiae, UniProt P38132 1-845)
T2 sequence: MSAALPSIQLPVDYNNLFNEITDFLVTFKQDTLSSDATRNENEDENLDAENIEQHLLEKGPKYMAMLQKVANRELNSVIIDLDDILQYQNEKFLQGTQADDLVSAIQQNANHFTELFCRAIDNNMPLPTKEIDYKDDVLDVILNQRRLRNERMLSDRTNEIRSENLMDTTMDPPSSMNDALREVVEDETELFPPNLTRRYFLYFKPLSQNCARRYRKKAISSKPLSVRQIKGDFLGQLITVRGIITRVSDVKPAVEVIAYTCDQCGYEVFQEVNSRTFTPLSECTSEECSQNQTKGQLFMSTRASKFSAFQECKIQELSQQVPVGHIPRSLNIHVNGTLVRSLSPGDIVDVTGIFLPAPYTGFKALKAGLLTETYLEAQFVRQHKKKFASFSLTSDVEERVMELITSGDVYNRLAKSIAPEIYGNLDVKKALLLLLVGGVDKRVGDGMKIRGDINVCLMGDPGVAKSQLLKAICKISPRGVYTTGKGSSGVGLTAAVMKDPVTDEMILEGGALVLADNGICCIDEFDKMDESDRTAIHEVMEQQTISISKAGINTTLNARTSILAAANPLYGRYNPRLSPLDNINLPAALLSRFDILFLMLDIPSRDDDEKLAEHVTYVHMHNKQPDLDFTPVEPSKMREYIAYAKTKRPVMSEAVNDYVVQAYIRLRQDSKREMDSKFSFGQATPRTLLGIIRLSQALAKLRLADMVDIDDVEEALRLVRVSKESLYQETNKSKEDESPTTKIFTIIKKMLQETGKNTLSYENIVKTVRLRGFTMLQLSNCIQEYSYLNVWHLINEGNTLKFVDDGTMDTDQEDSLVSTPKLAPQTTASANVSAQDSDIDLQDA

B1: Mcm3 (natural protein)
chain: MEGSTGFDGDATTFFAPDAVFGDRVRRFQEFLDTFTSYRDSVRSIQVYNSNNAANYNDDQDDADERDLLGDDDGDDLEKEKKAASSTSLNILPHRIIISLDDLREFDRSFWSGILVEPAYFIPPAEKALTDLADSMDDVPHPNASAVSSRHPWKLSFKGSFGAHALSPRTLTAQHLNKLVSVEGIVTKTSLVRPKLIRSVHYAAKTGRFHYRDYTDATTTLTTRIPTPAIYPTEDTEGNKLTTEYGYSTFIDHQRITVQEMPEMAPAGQLPRSIDVILDDDLVDKTKPGDRVNVVGVFKSLGAGGMNQSNSNTLIGFKTLILGNTVYPLHARSTGVAARQMLTDFDIRNINKLSKKKDIFDILSQSLAPSIYGHDHIKKAILLMLMGGVEKNLENGSHLRGDINILMVGDPSTAKSQLLRFVLNTASLAIATTGRGSSGVGLTAAVTTDRETGERRLEAGAMVLADRGVVCIDEFDKMTDVDRVAIHEVMEQQTVTIAKAGIHTTLNARCSVIAAANPVFGQYDVNRDPHQNIALPDSLLSRFDLLFVVTDDINEIRDRSISEHVLRTHRYLPPGYLEGEPVRERLNLSLAVGEDADINPEEHSNSGAGVENEGEDDEDHVFEKFNPLLQAGAKLAKNKGNYNGTEIPKLVTIPFLRKYVQYAKERVIPQLTQEAINVIVKNYTDLRNDDNTKKSPITARTLETLIRLATAHAKVRLSKTVNKVDAKVAANLLRFALLGEDIGNDIDEEESEYEEALSKRSPQKSPKKRQRVRQPASNSGSPIKSTPRRSTASSVNATPSSARRILRFQDDEQNAGEDDNDIMSPLPADEEAELQRRLQLGLRVSPRRREHLHAPEEGSSGPLTEVGTPRLPNVSSAGQDDEQQQSVISFDNVEPGTISTGRLSLISGIIARLMQTEIFEEESYPVASLFERINEELPEEEKFSAQEYLAGLKIMSDRNNLMVADDKVWRV
B2: Mcm2 (natural protein)
chain: MSDNRRRRREEDDSDSENELPPSSPQQHFRGGMNPVSSPIGSPDMINPEGDDNEVDDVPDIDEVEEQMNEVDLMDDNMYEDYAADHNRDRYDPDQVDDREQQELSLSERRRIDAQLNERDRLLRNVAYIDDEDEEQEGAAQLDEMGLPVQRRRRRRQYEDLENSDDDLLSDMDIDPLREELTLESLSNVKANSYSEWITQPNVSRTIARELKSFLLEYTDETGRSVYGARIRTLGEMNSESLEVNYRHLAESKAILALFLAKCPEEMLKIFDLVAMEATELHYPDYARIHSEIHVRISDFPTIYSLRELRESNLSSLVRVTGVVTRRTGVFPQLKYVKFNCLKCGSILGPFFQDSNEEIRISFCTNCKSKGPFRVNGEKTVYRNYQRVTLQEAPGTVPPGRLPRHREVILLADLVDVSKPGEEVEVTGIYKNNYDGNLNAKNGFPVFATIIEANSIKRREGNTANEGEEGLDVFSWTEEEEREFRKISRDRGIIDKIISSMAPSIYGHRDIKTAVACSLFGGVPKNVNGKHSIRGDINVLLLGDPGTAKSQILKYVEKTAHRAVFATGQGASAVGLTASVRKDPITKEWTLEGGALVLADKGVCLIDEFDKMNDQDRTSIHEAMEQQSISISKAGIVTTLQARCSIIAAANPNGGRYNSTLPLAQNVSLTEPILSRFDILCVVRDLVDEEADERLATFVVDSHVRSHPENDEDREGEELKNNGESAIEQGEDEINEQLNARQRRLQRQRKKEEEISPIPQELLMKYIHYARTKIYPKLHQMDMDKVSRVYADLRRESISTGSFPITVRHLESILRIAESFAKMRLSEFVSSYDLDRAIKVVVDSFVDAQKVSVRRQLRRSFAIYTLGH
B3: Mcm5 (natural protein)
chain: MSFDRPEIYSAPVLQGESPNDDDNTEIIKSFKNFILEFRLDSQFIYRDQLRNNILVKNYSLTVNMEHLIGYNEDIYKKLSDEPSDIIPLFETAITQVAKRISILSRAQSANNNDKDPENTSMDTDSLLLNSLPTFQLILNSNANQIPLRDLDSEHVSKIVRLSGIIISTSVLSSRATYLSIMCRNCRHTTSITINNFNSITGNTVSLPRSCLSTIESESSMANESNIGDESTKKNCGPDPYIIIHESSKFIDQQFLKLQEIPELVPVGEMPRNLTMTCDRYLTNKVIPGTRVTIVGIYSIYNSKNGAGSGRSGGGNGGSGVAIRTPYIKILGIQSDVETSSIWNSVTMFTEEEEEEFLQLSRNPKLYEILTNSIAPSIFGNEDIKKAIVCLLMGGSKKILPDGMRLRGDINVLLLGDPGTAKSQLLKFVEKVSPIAVYTSGKGSSAAGLTASVQRDPMTREFYLEGGAMVLADGGVVCIDEFDKMRDEDRVAIHEAMEQQTISIAKAGITTVLNSRTSVLAAANPIYGRYDDLKSPGDNIDFQTTILSRFDMIFIVKDDHNEERDISIANHVINIHTGNANAMQNQQEENGSEISIEKMKRYITYCRLKCAPRLSPQAAEKLSSNFVTIRKQLLINELESTERSSIPITIRQLEAIIRITESLAKLELSPIAQERHVDEAIRLFQASTMDAASQDPIGGLNQASGTSLSEIRRFEQELKRRLPIGWSTSYQTLRREFVDTHRFSQLALDKALYALEKHETIQLRHQGQNIYRSGV

Assays:
Test in all cases: SEC + co-IP
Mcm6 = Mcm6 (Saccharomyces cerevisiae, UniProt P53091 1-1017)
Mcm3 = target: B1
Mcm4 = target: T1, Mcm4
Mcm7 = target: T2, Mcm7

Mcm6, sequence (P53091 whole entry): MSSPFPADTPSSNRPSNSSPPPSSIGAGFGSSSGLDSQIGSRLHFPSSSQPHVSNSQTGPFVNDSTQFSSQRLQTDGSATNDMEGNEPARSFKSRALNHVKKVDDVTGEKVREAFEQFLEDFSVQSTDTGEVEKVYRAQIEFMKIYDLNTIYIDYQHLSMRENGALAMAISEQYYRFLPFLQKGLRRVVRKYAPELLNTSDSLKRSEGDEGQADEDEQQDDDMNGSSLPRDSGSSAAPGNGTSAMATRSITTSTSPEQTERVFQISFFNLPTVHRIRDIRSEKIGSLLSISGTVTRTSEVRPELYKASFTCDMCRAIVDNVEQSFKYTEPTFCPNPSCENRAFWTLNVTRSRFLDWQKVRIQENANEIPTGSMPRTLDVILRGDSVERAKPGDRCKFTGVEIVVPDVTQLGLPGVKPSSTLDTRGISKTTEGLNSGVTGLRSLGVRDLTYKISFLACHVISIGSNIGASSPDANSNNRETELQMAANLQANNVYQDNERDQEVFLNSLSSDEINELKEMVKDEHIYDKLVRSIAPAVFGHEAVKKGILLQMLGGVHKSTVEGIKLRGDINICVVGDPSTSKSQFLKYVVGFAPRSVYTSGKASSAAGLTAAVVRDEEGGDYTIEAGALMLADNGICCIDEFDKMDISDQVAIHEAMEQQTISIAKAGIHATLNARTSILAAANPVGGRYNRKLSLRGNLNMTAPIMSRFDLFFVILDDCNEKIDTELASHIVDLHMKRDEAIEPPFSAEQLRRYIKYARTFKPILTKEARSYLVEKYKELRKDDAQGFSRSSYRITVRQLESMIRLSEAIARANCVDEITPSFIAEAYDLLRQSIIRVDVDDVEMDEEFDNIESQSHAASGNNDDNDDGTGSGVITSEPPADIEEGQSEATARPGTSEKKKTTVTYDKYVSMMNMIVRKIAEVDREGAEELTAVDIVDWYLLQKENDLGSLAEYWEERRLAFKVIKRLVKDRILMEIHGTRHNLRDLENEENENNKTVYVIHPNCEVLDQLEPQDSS

| Binder | binding result (Mcm6) | binding result (Mcm3) | binding result (Mcm4) | binding result (Mcm7) |
| --- | --- | --- | --- | --- |
| B1 | binds | – | – | – |
| B2 | – | binds | binds | – |
| B3 | binds | – | – | binds |
